Where a chain is given by its changes, count along the chain named.
Tests used:
[1] = test system: HPPD polypeptides; experiment: coupled HPPD activity assay: turnover and residual turnover in crude extracts; type: biochemical, Pseudomonas fluorescens; details: for Turnover: absence of Cmpd. 1, kinetic changes in absorbance (OD) at 320 nm, 30 min; for Turnover / Residual turnover: high substrate concentration; for Residual turnover: presence of 100 μM Cmpd. 1, changes in absorbance (OD) at 320 nm; for turnover / residual turnover in the presence of Cmpd. 1 compared with a reference HPPD polypeptide, in words: comparison with the reference or parent polypeptide; for Residual turnover [%]: 100 μM Cmpd. 1, signal change with inhibitor divided by signal change without inhibitor
[2] = test system: T0 soybean plants; experiment: greenhouse spray test, leaf area damage score; type: in vivo; details: for leaf area damage score, 25th percentile / leaf area damage score, 75th percentile / leaf area damage score, 90th percentile / leaf area damage score, Median: transgenic soybean T0 events, five days after Cmpd. 1 at 300 g AI/ha; for leaf area damage score, 25th percentile: scale 0 (no damage) to 100 (complete bleaching)
Excerpt: Tolerant green shoots were transferred to rooting media or grafted. Rooted plantlets were transferred to the greenhouse after an acclimation period. Plants containing the transgene were then sprayed with HPPD inhibitor herbicides, as for example with mesotrione at a rate of 300-600 g AI/ha, or with Cmpd. 1 (2-chloro-3-(methylsulfanyl)-N-(1-methyl-1H-tetrazol-5-yl)-4-(trifluoromethyl)-benzamide) at a rate of 150 g-300 g AI/ha supplemented with ammonium sulfate and methyl ester rapeseed oil. Five to ten days after the application, the symptoms due to the application of the herbicide were evaluated and compared to the symptoms observed on wild-type plants under the same conditions. For example, T0 soybean plants having a “plant expression cassette”, which includes an HPPD inhibitor tolerant HPPD polypeptide of the present invention, were tested towards the tolerance of Cmpd. 1. Prior greenhouse trials with the transgenic plants, soybean transformants were routinely analyzed for the expression and presence of the transgenes using the ELISA protein detection method (see detailed description under item D and H). Only plants recovering in the selection media and having a detectable HPPD transgene protein expression were used for the herbicide tolerance analysis. A DeVries Tracker Sprayer was calibrated prior to each spraying. The chemical formulation used for Cmpd. 1 was supplemented with ammonium sulfate and methylated rape seed oil. Spray tests were conducted with a concentration, which equals to 300 grams AI per hectare (300 g AI/ha).
In greenhouse trials, independent T0 soybean events containing an exemplary mutant HPPD polypeptide were sprayed with the HPPD inhibitor herbicide Cmpd. 1 (2-chloro-3-(methylsulfanyl)-N-(1-methyl-1H-tetrazol-5-yl)-4-(trifluoromethyl)benzamide) at the rate of 300 grams AI/ha, supplemented with ammonium sulfate and methyl ester rapeseed oil. Five days after the application, the leaf damaged area due to the HPPD inhibitor herbicide is scored in a scale from 0 (no damage) to 100 (complete bleaching). Under those conditions, the wild-type plants were completely bleached and their damage scores were in the 95-100 range.
Table 5 presents the distribution of the HPPD inhibitor herbicide damage score data as percentile for exemplary mutant HPPD inhibitor herbicide tolerant polypeptides (SEQ ID NOs). The percentiles normalize ranks of the damage score from an individual plant in a population. […] The median is the 50th percentile. Half the values had higher damage scores; half had lower damage scores. The value of the 75th and 90th percentile is the damage score where 75% and 90% of the soybean events had lower damage scores, respectively. The difference between the 75th and 25th percentile is called the interquartile range and a marker to quantify scattering in the population. All constructs had only one single cassette insertion in the soybean genome.

**Q.** `CSc1c(C(F)(F)F)ccc(C(=O)Nc2nnnn2C)c1Cl` [Cmpd. 1, 2-chloro-3-(methylsulfanyl)-N-(1-methyl-1H-tetrazol-5-yl)-4-(trifluoromethyl)benzamide, reference compound] was tested. Which Turnover [1] did it give?
**A.** 0.203

**Q.** What about the Residual turnover [1] of the same molecule?
**A.** 0.021

**Q.** And the “leaf damage score of wild-type plants” value ([2]; wild-type soybean plants, 300 grams AI/ha, five days after application, scale 0-100)?
**A.** 95-100

B1: SEQ ID NO: 47: mutant PfHPPD: 268A 270N 335P 336H 337S 340V 344Q 345M (protein)
chain: MADLYENPMGLMGFEFIEFASPTPGTLEPIFEIMGFTKVATHRSKNVHLYRQGEINLILNNEPNSIASYFAAEHGPSVCGMAFRVKDSQKAYNRALELGAQPIHIDTGPMELNLPAIKGIGGAPLYLIDRFGEGSSIYDIDFVYLEGVERNPVGAGLKVIDHLTHNVYRGRMVYWANFYEKLFNFREARYFDIKGEYTGLTSKAMSAPDGMIRIPLNEESSKGAGQIEEFLMQFNGEGIQHVAFLTDDLVKTWDALKKIGMRFMTAPADNYYEMLEGRLPDHGEPVDQLQARGILLDGSSVEGDKRLLLQIFSETLMGPVFFEFIQRKGDDGFGPHSFKVLFEQMERDQVRRGVLTAD
modifications: mutant HPPD polypeptide
notes: mutant PfHPPD: 268A 270N 335P 336H 337S 340V 344Q 345M
**Q.** B1 was tested. Which “turnover / residual turnover in the presence of Cmpd. 1 compared with a reference HPPD polypeptide, in words” value [1] did it give?
**A.** significant increase in the residual turnover

**Q.** And the “leaf area damage score, 25th percentile” value [2]?
**A.** 5.0

**Q.** And the “leaf area damage score, 75th percentile” value ([2]; scale 0-100)?
**A.** 15.0

**Q.** And the “leaf area damage score, 90th percentile” value ([2]; scale 0-100)?
**A.** 51.0

**Q.** What about the “leaf area damage score, Median” value ([2]; scale 0-100) of the same molecule?
**A.** 15.0

B2: 44 (protein)
chain: B1 chain with A268G, N270E, M345V
modifications: mutant HPPD polypeptide
**Q.** Which Turnover [1] does the source give for B2 here?
**A.** 0.036

B3: 32 (protein)
chain: B1 chain with A268P, N270T, Q344S, M345V
modifications: mutant HPPD polypeptide
**Q.** For B3, which “Residual turnover [%]” value [1] is on record?
**A.** 39%

**Q.** What about the Turnover [1] of the same molecule?
**A.** 0.326

**Q.** What about the Residual turnover [1] of the same molecule?
**A.** 0.128

B4: 28 (protein)
chain: B1 chain with A268G, Q344S, M345I
modifications: mutant HPPD polypeptide
**Q.** For B4, which “Residual turnover [%]” value [1] is on record?
**A.** 43%

**Q.** What about the Turnover [1] of the same molecule?
**A.** 0.204

**Q.** What about the Residual turnover [1] of the same molecule?
**A.** 0.088

B5: 39 (protein)
chain: B1 chain with A268G, N270E, Q344S, M345V
modifications: mutant HPPD polypeptide
**Q.** With B5 as the molecule, how does the “Residual turnover [%]” value [1] read?
**A.** 40%

**Q.** What about the Turnover [1] of the same molecule?
**A.** 0.244

**Q.** And the Residual turnover [1]?
**A.** 0.097

B6: 45 (protein)
chain: B1 chain with M345V
modifications: mutant HPPD polypeptide
**Q.** With B6 as the molecule, how does the “Residual turnover [%]” value [1] read?
**A.** 57%

**Q.** And the Turnover [1]?
**A.** 0.214

**Q.** What about the Residual turnover [1] of the same molecule?
**A.** 0.121

B7: 30 (protein)
chain: B1 chain with N270T, Q344S, M345V
modifications: mutant HPPD polypeptide
**Q.** For B7, which “Residual turnover [%]” value [1] is on record?
**A.** 48%

**Q.** And the Turnover [1]?
**A.** 0.311

**Q.** And the Residual turnover [1]?
**A.** 0.149

B8: SEQ ID NO: 66: mutant PfHPPD: 213K 268A 270S 335P 336H 337S 340V 344Q 345M (protein)
chain: B1 chain with R213K, N270S
modifications: mutant HPPD polypeptide
notes: mutant PfHPPD: 213K 268A 270S 335P 336H 337S 340V 344Q 345M
**Q.** For B8, which “turnover / residual turnover in the presence of Cmpd. 1 compared with a reference HPPD polypeptide, in words” value [1] is on record?
**A.** increase significantly the turnover and the residual turnover

**Q.** And the “leaf area damage score, 25th percentile” value [2]?
**A.** 5.0

**Q.** And the “leaf area damage score, 75th percentile” value ([2]; scale 0-100)?
**A.** 25.0

**Q.** And the “leaf area damage score, 90th percentile” value ([2]; scale 0-100)?
**A.** 41.0

**Q.** What about the “leaf area damage score, Median” value ([2]; scale 0-100) of the same molecule?
**A.** 10.0

B9: 27 (protein)
chain: B1 chain with Q344S, M345I
modifications: mutant HPPD polypeptide
**Q.** Which “Residual turnover [%]” value [1] does the source give for B9 here?
**A.** 38%

**Q.** What about the Turnover [1] of the same molecule?
**A.** 0.266

**Q.** What about the Residual turnover [1] of the same molecule?
**A.** 0.101

B10: 34 (protein)
chain: B1 chain with A268G, Q344S, M345V
modifications: mutant HPPD polypeptide
**Q.** How did the “Residual turnover [%]” value [1] turn out when B10 was run?
**A.** 47%

**Q.** And the Turnover [1]?
**A.** 0.243

**Q.** And the Residual turnover [1]?
**A.** 0.113

B11: 43 (protein)
chain: B1 chain with N270E, M345V
modifications: mutant HPPD polypeptide
**Q.** For B11, which “Residual turnover [%]” value [1] is on record?
**A.** 58%

**Q.** And the Turnover [1]?
**A.** 0.190

**Q.** What about the Residual turnover [1] of the same molecule?
**A.** 0.110

B12: 31 (protein)
chain: B1 chain with A268G, N270T, Q344S, M345V
modifications: mutant HPPD polypeptide
**Q.** How did the “Residual turnover [%]” value [1] turn out when B12 was run?
**A.** 37%

**Q.** What about the Turnover [1] of the same molecule?
**A.** 0.268

**Q.** And the Residual turnover [1]?
**A.** 0.098

B13: 42 (protein)
chain: B1 chain with A268S, N270E, Q344S, M345V
modifications: mutant HPPD polypeptide
**Q.** What does the source list for B13?
**A.** Residual turnover [%] [1]: 40%; Turnover [1]: 0.278; Residual turnover [1]: 0.111

B14: 33 (protein)
chain: B1 chain with Q344S, M345V
modifications: mutant HPPD polypeptide
**Q.** For B14, which “Residual turnover [%]” value [1] is on record?
**A.** 46%

**Q.** What about the Turnover [1] of the same molecule?
**A.** 0.189

**Q.** And the Residual turnover [1]?
**A.** 0.087

B15: 40 (protein)
chain: B1 chain with A268G, N270E, H336D, Q344S, M345V
modifications: mutant HPPD polypeptide
**Q.** Which results are given for B15?
**A.** Residual turnover [%] [1]: 54%; Turnover [1]: 0.134; Residual turnover [1]: 0.073

B16: SEQ ID NO: 2: prior art mutant HPPD polypeptide (WO2014/043435): 335P 336W 339A 340Q (protein)
chain: B1 chain with A268P, N270T, H336W, S337N, K339A, V340Q, Q344S, M345I
modifications: mutant HPPD polypeptide
notes: prior art mutant HPPD polypeptide (WO2014/043435): 335P 336W 339A 340Q
**Q.** With B16 as the molecule, how does the “leaf area damage score, 25th percentile” value [2] read?
**A.** 15.0

**Q.** What about the “leaf area damage score, 75th percentile” value ([2]; scale 0-100) of the same molecule?
**A.** 45.0

**Q.** And the “leaf area damage score, 90th percentile” value ([2]; scale 0-100)?
**A.** 87.0

**Q.** What about the “leaf area damage score, Median” value ([2]; scale 0-100) of the same molecule?
**A.** 20.0

B17: 41 (protein)
chain: B1 chain with A268R, N270E, Q344S, M345V
modifications: mutant HPPD polypeptide
**Q.** Which results are given for B17?
**A.** Residual turnover [%] [1]: 38%; Turnover [1]: 0.280; Residual turnover [1]: 0.105

B18: 37 (protein)
chain: B1 chain with A268S, Q344S, M345V
modifications: mutant HPPD polypeptide
**Q.** Which results are given for B18?
**A.** Residual turnover [%] [1]: 50%; Turnover [1]: 0.096; Residual turnover [1]: 0.048

B19: 36 (protein)
chain: B1 chain with A268R, Q344S, M345V
modifications: mutant HPPD polypeptide
**Q.** Which “Residual turnover [%]” value [1] does the source give for B19 here?
**A.** 61%

**Q.** What about the Turnover [1] of the same molecule?
**A.** 0.108

**Q.** What about the Residual turnover [1] of the same molecule?
**A.** 0.066

B20: 38 (protein)
chain: B1 chain with N270E, Q344S, M345V
modifications: mutant HPPD polypeptide
**Q.** How did the “Residual turnover [%]” value [1] turn out when B20 was run?
**A.** 45%

**Q.** What about the Turnover [1] of the same molecule?
**A.** 0.286

**Q.** What about the Residual turnover [1] of the same molecule?
**A.** 0.129

B21: 29 (protein)
chain: B1 chain with A268P, Q344S, M345I
modifications: mutant HPPD polypeptide
**Q.** B21 was tested. Which “Residual turnover [%]” value [1] did it give?
**A.** 29%

**Q.** What about the Turnover [1] of the same molecule?
**A.** 0.289

**Q.** What about the Residual turnover [1] of the same molecule?
**A.** 0.084

B22: 35 (protein)
chain: B1 chain with A268P, Q344S, M345V
modifications: mutant HPPD polypeptide
**Q.** How did the Turnover [1] turn out when B22 was run?
**A.** 0.036

**Q.** What about the Residual turnover [1] of the same molecule?
**A.** 0.023

Source: patent publication US11180770B2, “HPPD variants and methods of use” (BASF Agricultural Solutions Seed US LLC, priority 2017, dated 2021)
